Measurements reported in US20100260668A1 (published 2010).

Target: T1, VEGF (UniProt P15692-4 27-191)
T1 construct: Bought reagent; also called vascular endothelial growth factor
Test: SPR (Biacore), DVD-Ig captured, VEGF in solution

T1 sequence (P15692 other isoform, or with tags, fused parts or gaps limits assumed): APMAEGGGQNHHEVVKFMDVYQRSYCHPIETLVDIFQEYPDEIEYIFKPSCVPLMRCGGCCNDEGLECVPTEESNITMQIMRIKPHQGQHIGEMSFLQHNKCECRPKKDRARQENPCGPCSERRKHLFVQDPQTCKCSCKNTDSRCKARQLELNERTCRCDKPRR

Binder	Kd [nM]	koff [s⁻¹]	kon [M⁻¹ s⁻¹]
DVD496 (bispecific antibody, human IgG1, kappa, DVD-Ig; N-term; VD AB070 (VEGF), C-term; VD AB072 (DLL4); HC linker long, LC linker long; also called DVD496H; DVD496L) heavy: not shown light: DIQMTQSPSSLSASVGDRVTITCRASQDVSTAVAWYQQKPGKAPKLLIYSASFLYSGVPSRFSGSGSGTDFTLTISSLQPEDFATYYCQQSYTTPPTFGQGTKVEIKRTVAAPSVFIFPPDIQMTQSSSYLSVSLGGRVTITCKASDHINNWLAWYQQKPGNAPRLLISGATSLETGVPSRFSGSGSGKDYTLSITSLQTEDVATYYCQQYWSIPLTFGAGTKLELKRTVAAPSVFIFPPSDEQLKSGTASVVCLLNNFYPREAKVQWKVDNALQSGNSQESVTEQDSKDSTYSLSSTLTLSKADYEKHKVYACEVTHQGLSSPVTKSFNRGEC	0.311	0.00658	2.12e+07
DVD514 (bispecific antibody, human IgG1, lambda, DVD-Ig; N-term; VD AB070 (VEGF), C-term; VD AB073 (DLL4); HC linker short, LC linker short; also called DVD514H; DVD514L) heavy: not shown light: DIQMTQSPSSLSASVGDRVTITCRASQDVSTAVAWYQQKPGKAPKLLIYSASFLYSGVPSRFSGSGSGTDFTLTISSLQPEDFATYYCQQSYTTPPTFGQGTKVEIKRTVAAPQAVVTQESALTTSPGETVTLTCRSSTGAVTTSNYANWVQEKPDHLFTGLIGGTNNRAPGVPARFSGSLIGDKAALTITGAQTEDEAIYFCALWYSNHWVFGGGTKLTVLGQPKAAPSVTLFPPSSEELQANKATLVCLISDFYPGAVTVAWKADSSPVKAGVETTTPSKQSNNKYAASSYLSLTPEQWKSHRSYSCQVTHEGSTVEKTVAPTECS	1.01	0.000549	541000
DVD526 (bispecific antibody, human IgG1, lambda, DVD-Ig; N-term; VD AB070 (VEGF), C-term; VD AB073 (DLL4); HC linker long, LC linker short; also called DVD526H; DVD526L) heavy: not shown light: DIQMTQSPSSLSASVGDRVTITCRASQDVSTAVAWYQQKPGKAPKLLIYSASFLYSGVPSRFSGSGSGTDFTLTISSLQPEDFATYYCQQSYTTPPTFGQGTKVEIKRTVAAPQAVVTQESALTTSPGETVTLTCRSSTGAVTTSNYANWVQEKPDHLFTGLIGGTNNRAPGVPARFSGSLIGDKAALTITGAQTEDEAIYFCALWYSNHWVFGGGTKLTVLGQPKAAPSVTLFPPSSEELQANKATLVCLISDFYPGAVTVAWKADSSPVKAGVETTTPSKQSNNKYAASSYLSLTPEQWKSHRSYSCQVTHEGSTVEKTVAPTECS	0.675	0.000801	1.19e+06
DVD490 (bispecific antibody, human IgG1, kappa, DVD-Ig; N-term; VD AB070 (VEGF), C-term; VD AB072 (DLL4); HC linker short, LC linker short; also called DVD490H; DVD490L) heavy: not shown light: DIQMTQSPSSLSASVGDRVTITCRASQDVSTAVAWYQQKPGKAPKLLIYSASFLYSGVPSRFSGSGSGTDFTLTISSLQPEDFATYYCQQSYTTPPTFGQGTKVEIKRTVAAPDIQMTQSSSYLSVSLGGRVTITCKASDHINNWLAWYQQKPGNAPRLLISGATSLETGVPSRFSGSGSGKDYTLSITSLQTEDVATYYCQQYWSIPLTFGAGTKLELKRTVAAPSVFIFPPSDEQLKSGTASVVCLLNNFYPREAKVQWKVDNALQSGNSQESVTEQDSKDSTYSLSSTLTLSKADYEKHKVYACEVTHQGLSSPVTKSFNRGEC	0.189	0.000169	894000
DVD450 (bispecific antibody, human IgG1, kappa, DVD-Ig; N-term; VD AB070 (VEGF), C-term; VD AB069 (DLL4); HC linker long, LC linker long; also called DVD450H; DVD450L) heavy: not shown light: DIQMTQSPSSLSASVGDRVTITCRASQDVSTAVAWYQQKPGKAPKLLIYSASFLYSGVPSRFSGSGSGTDFTLTISSLQPEDFATYYCQQSYTTPPTFGQGTKVEIKRTVAAPSVFIFPPDIVMTQSPDSLAVSLGERATISCRASESVDNYGISFMKWFQQKPGQPPKLLIYAASNQGSGVPDRFSGSGSGTDFTLTISSLQAEDVAVYYCQQSKEVPWTFGGGTKVEIKRTVAAPSVFIFPPSDEQLKSGTASVVCLLNNFYPREAKVQWKVDNALQSGNSQESVTEQDSKDSTYSLSSTLTLSKADYEKHKVYACEVTHQGLSSPVTKSFNRGEC	0.255	0.00431	1.69e+07
DVD462 (bispecific antibody, human IgG1, kappa, DVD-Ig; N-term; VD AB070 (VEGF), C-term; VD AB069 (DLL4); HC linker short, LC linker long; also called DVD462H; DVD462L) heavy: not shown light: DIQMTQSPSSLSASVGDRVTITCRASQDVSTAVAWYQQKPGKAPKLLIYSASFLYSGVPSRFSGSGSGTDFTLTISSLQPEDFATYYCQQSYTTPPTFGQGTKVEIKRTVAAPSVFIFPPDIVMTQSPDSLAVSLGERATISCRASESVDNYGISFMKWFQQKPGQPPKLLIYAASNQGSGVPDRFSGSGSGTDFTLTISSLQAEDVAVYYCQQSKEVPWTFGGGTKVEIKRTVAAPSVFIFPPSDEQLKSGTASVVCLLNNFYPREAKVQWKVDNALQSGNSQESVTEQDSKDSTYSLSSTLTLSKADYEKHKVYACEVTHQGLSSPVTKSFNRGEC	0.864	0.000858	993000
DVD472 (bispecific antibody, human IgG1, kappa, DVD-Ig; N-term; VD AB070 (VEGF), C-term; VD AB015 (DLL4); HC linker long, LC linker long; also called DVD472H; DVD472L) heavy: not shown light: DIQMTQSPSSLSASVGDRVTITCRASQDVSTAVAWYQQKPGKAPKLLIYSASFLYSGVPSRFSGSGSGTDFTLTISSLQPEDFATYYCQQSYTTPPTFGQGTKVEIKRTVAAPSVFIFPPDIQMTQSPSSLSASVGDRVTITCRASQDVSTAVAWYQQKPGKAPKLLIYSASFLYSGVPSRFSGSGSGTDFTLTISSLQPEDFATTYYCQQSYTGTVTFGQGTKVEIKRTVAAPSVFIFPPSDEQLKSGTASVVCLLNNFYPREAKVQWKVDNALQSGNSQESVTEQDSKDSTYSLSSTLTLSKADYEKHKVYACEVTHQGLSSPVTKSFNRGEC	0.201	0.00024	1.2e+06
DVD484 (bispecific antibody, human IgG1, kappa, DVD-Ig; N-term; VD AB070 (VEGF), C-term; VD AB015 (DLL4); HC linker short, LC linker long; also called DVD484H; DVD484L) heavy: not shown light: DIQMTQSPSSLSASVGDRVTITCRASQDVSTAVAWYQQKPGKAPKLLIYSASFLYSGVPSRFSGSGSGTDFTLTISSLQPEDFATYYCQQSYTTPPTFGQGTKVEIKRTVAAPSVFIFPPDIQMTQSPSSLSASVGDRVTITCRASQDVSTAVAWYQQKPGKAPKLLIYSASFLYSGVPSRFSGSGSGTDFTLTISSLQPEDFATTYYCQQSYTGTVTFGQGTKVEIKRTVAAPSVFIFPPSDEQLKSGTASVVCLLNNFYPREAKVQWKVDNALQSGNSQESVTEQDSKDSTYSLSSTLTLSKADYEKHKVYACEVTHQGLSSPVTKSFNRGEC	0.255	0.0041	1.61e+07
DVD444 (bispecific antibody, human IgG1, kappa, DVD-Ig; N-term; VD AB070 (VEGF), C-term; VD AB069 (DLL4); HC linker short, LC linker short; also called DVD444H; DVD444L) heavy: not shown light: DIQMTQSPSSLSASVGDRVTITCRASQDVSTAVAWYQQKPGKAPKLLIYSASFLYSGVPSRFSGSGSGTDFTLTISSLQPEDFATYYCQQSYTTPPTFGQGTKVEIKRTVAAPDIVMTQSPDSLAVSLGERATISCRASESVDNYGISFMKWFQQKPGQPPKLLIYAASNQGSGVPDRFSGSGSGTDFTLTISSLQAEDVAVYYCQQSKEVPWTFGGGTKVEIKRTVAAPSVFIFPPSDEQLKSGTASVVCLLNNFYPREAKVQWKVDNALQSGNSQESVTEQDSKDSTYSLSSTLTLSKADYEKHKVYACEVTHQGLSSPVTKSFNRGEC	0.162	0.0038	2.35e+07
DVD456 (bispecific antibody, human IgG1, kappa, DVD-Ig; N-term; VD AB070 (VEGF), C-term; VD AB069 (DLL4); HC linker long, LC linker short; also called DVD456H; DVD456L) heavy: not shown light: DIQMTQSPSSLSASVGDRVTITCRASQDVSTAVAWYQQKPGKAPKLLIYSASFLYSGVPSRFSGSGSGTDFTLTISSLQPEDFATYYCQQSYTTPPTFGQGTKVEIKRTVAAPDIVMTQSPDSLAVSLGERATISCRASESVDNYGISFMKWFQQKPGQPPKLLIYAASNQGSGVPDRFSGSGSGTDFTLTISSLQAEDVAVYYCQQSKEVPWTFGGGTKVEIKRTVAAPSVFIFPPSDEQLKSGTASVVCLLNNFYPREAKVQWKVDNALQSGNSQESVTEQDSKDSTYSLSSTLTLSKADYEKHKVYACEVTHQGLSSPVTKSFNRGEC	0.281	0.00448	1.6e+07
DVD520 (bispecific antibody, human IgG1, kappa, lambda, DVD-Ig; N-term; VD AB070 (VEGF), C-term; VD AB073 (DLL4); HC linker long, LC linker long; also called DVD520H; DVD520L) heavy: not shown light: DIQMTQSPSSLSASVGDRVTITCRASQDVSTAVAWYQQKPGKAPKLLIYSASFLYSGVPSRFSGSGSGTDFTLTISSLQPEDFATYYCQQSYTTPPTFGQGTKVEIKRTVAAPSVFIFPPQAVVTQESALTTSPGETVTLTCRSSTGAVTTSNYANWVQEKPDHLFTGLIGGTNNRAPGVPARFSGSLIGDKAALTITGAQTEDEAIYFCALWYSNHWVFGGGTKLTVLGQPKAAPSVTLFPPSSEELQANKATLVCLISDFYPGAVTVAWKADSSPVKAGVETTTPSKQSNNKYAASSYLSLTPEQWKSHRSYSCQVTHEGSTVEKTVAPTECS	0.817	0.000961	1.18e+06
DVD532 (bispecific antibody, human IgG1, kappa, lambda, DVD-Ig; N-term; VD AB070 (VEGF), C-term; VD AB073 (DLL4); HC linker short, LC linker long; also called DVD532H; DVD532L) heavy: not shown light: DIQMTQSPSSLSASVGDRVTITCRASQDVSTAVAWYQQKPGKAPKLLIYSASFLYSGVPSRFSGSGSGTDFTLTISSLQPEDFATYYCQQSYTTPPTFGQGTKVEIKRTVAAPSVFIFPPQAVVTQESALTTSPGETVTLTCRSSTGAVTTSNYANWVQEKPDHLFTGLIGGTNNRAPGVPARFSGSLIGDKAALTITGAQTEDEAIYFCALWYSNHWVFGGGTKLTVLGQPKAAPSVTLFPPSSEELQANKATLVCLISDFYPGAVTVAWKADSSPVKAGVETTTPSKQSNNKYAASSYLSLTPEQWKSHRSYSCQVTHEGSTVEKTVAPTECS	0.276	0.0123	4.47e+07
DVD507 (bispecific antibody, human IgG1, kappa, L234A L235A, DVD-Ig; N-term; VD AB072 (DLL4), C-term; VD AB070 (VEGF); HC linker short, LC linker long; also called DVD507H; DVD507L) heavy: not shown light: DIQMTQSSSYLSVSLGGRVTITCKASDHINNWLAWYQQKPGNAPRLLISGATSLETGVPSRFSGSGSGKDYTLSITSLQTEDVATYYCQQYWSIPLTFGAGTKLELKRTVAAPSVFIFPPDIQMTQSPSSLSASVGDRVTITCRASQDVSTAVAWYQQKPGKAPKLLIYSASFLYSGVPSRFSGSGSGTDFTLTISSLQPEDFATYYCQQSYTTPPTFGQGTKVEIKRTVAAPSVFIFPPSDEQLKSGTASVVCLLNNFYPREAKVQWKVDNALQSGNSQESVTEQDSKDSTYSLSSTLTLSKADYEKHKVYACEVTHQGLSSPVTKSFNRGEC	0.847	0.000201	238000
DVD466 (bispecific antibody, human IgG1, kappa, DVD-Ig; N-term; VD AB070 (VEGF), C-term; VD AB015 (DLL4); HC linker short, LC linker short; also called DVD466H; DVD466L) heavy: not shown light: DIQMTQSPSSLSASVGDRVTITCRASQDVSTAVAWYQQKPGKAPKLLIYSASFLYSGVPSRFSGSGSGTDFTLTISSLQPEDFATYYCQQSYTTPPTFGQGTKVEIKRTVAAPDIQMTQSPSSLSASVGDRVTITCRASQDVSTAVAWYQQKPGKAPKLLIYSASFLYSGVPSRFSGSGSGTDFTLTISSLQPEDFATTYYCQQSYTGTVTFGQGTKVEIKRTVAAPSVFIFPPSDEQLKSGTASVVCLLNNFYPREAKVQWKVDNALQSGNSQESVTEQDSKDSTYSLSSTLTLSKADYEKHKVYACEVTHQGLSSPVTKSFNRGEC	0.71	0.000393	553000
DVD478 (bispecific antibody, human IgG1, kappa, DVD-Ig; N-term; VD AB070 (VEGF), C-term; VD AB015 (DLL4); HC linker long, LC linker short; also called DVD478H; DVD478L) heavy: not shown light: DIQMTQSPSSLSASVGDRVTITCRASQDVSTAVAWYQQKPGKAPKLLIYSASFLYSGVPSRFSGSGSGTDFTLTISSLQPEDFATYYCQQSYTTPPTFGQGTKVEIKRTVAAPDIQMTQSPSSLSASVGDRVTITCRASQDVSTAVAWYQQKPGKAPKLLIYSASFLYSGVPSRFSGSGSGTDFTLTISSLQPEDFATTYYCQQSYTGTVTFGQGTKVEIKRTVAAPSVFIFPPSDEQLKSGTASVVCLLNNFYPREAKVQWKVDNALQSGNSQESVTEQDSKDSTYSLSSTLTLSKADYEKHKVYACEVTHQGLSSPVTKSFNRGEC	0.354	0.000195	552000
